Our source for the protein production values is a protein production outcome set (Wang et al. 2014).

A short description of the data set: label from the status in PepcDB records.
“MSLKIAKVEALSVAMGDGTGWMPTSAFVRITAEDGTVGWGEASPMLGGIASLGVVARDIAPFLEGQEVLDHAVLLDRMMHRLVKLGPEGIATAALAACDIALWDLKGKLLGQPIYKLLGGAWRTRLPCYSSIGGNAARSVDEVVREVARRVEAEQPAAVKIRWDGDRTRCDVDIPGDIAKARAVRELLGPDAVIGFDANNGYSVGGAIRVGRALEDLGYSWFEEPVQHYHVGAMGEVAQRLDITVSAGEQTYTLQALKDLILSGVRMVQPDIVKMGGITGMMQCAALAHAHGVEFVPHQTQPGVGHFANIHVLSTLMHMTKPVELADRWDRGRPVFRNPAEPVDGHFALGDAPGLGIVVDEDELASRATEITVGRDQRPPAGGQYEGHHHHHH”: the protein production entry is recorded as “not failed”.

Consider “MSLKIKVYLYTRVSTSIQIEGYSLEAQKSRMKAFAIYNDYEIVGEYEDAGKSGKSIEGRIQFNRMMEDIKSGKDGVSFVLVFKLSRFARNAADVLSTLQIMQDYGVNLICVEDGIDSSKDAGKLMISVLSAVAEIERENIRIQTMEGCIQKAREGKWNGEGHHHHHH”, for which the protein production result was “not failed”.

For “MSLKITEVKAHALSTPIPERMRVESGAGLKLNRQMILVEVRTDEGVTGVGSPSGPYDLAVLKRAIEDVIGPQLIGEDPANINYLWHKVFHGEVSRNLGHRSVGIAAMSGVDIALWDLKGRAMNQPIYQLLGGKFHTRGVRAYASSIYWDLTPDQAADELAGWVEQGFTAAKLKVGRAPRKDAANLRAMRQRVGADVEILVDANQSLGRHDALAMLRILDEAGCYWFEEPLSIDDIEGHRILRAQGTPVRIATGENLYTRNAFNDYIRNDAIDVLQADASRAGGITEALAISASAASAHLAWNPHTFNDIITVAANLHLVAASPHPAMFEWDITHNDLMTRLASYDLKLENGLVQPPQGPGLGFEIDWDFVAAHAWKGEPAIGAGHGMKKEGHHHHHH”, the protein production result was “not failed”.

On to “MSLKITSIEVFDCELKKRDQTMSSYNPVLIRVNTDSGLSGIGEVGLAYGAGAKAGVGIIRDLAPLIVGEDPLNIEKIWEFFFRKTFWGMGGGNVFYAGMSAIDIALWDIKGKYLGVPVYQLLGGKTNEKLRTYASQLQFGWGDKRHILVTPEEYAEAARAALDDGYDAIKVDPLEIDRNGDDCVFQNRNRNYSGLLLADQLKMGEARIAAMREAMGDDADIIVEIHSLLGTNSAIQFAKAIEKYRIFLYEEPIHPLNSDNMQKVSRSTTIPIATGERSYTRWGYRELLEKQSIAVAQPDLCLCGGITEGKKICDYANIYDTTVQVHVCGGPVSTVAALHMETAIPNFIIHEHHTNAMKASIRELCTHDYQPENGYYVAPEQPGLGQELNDEVVKEYLAYVIKEGHHHHHH”, for which the protein production entry is listed as “not failed”.

In the case of “MSLKIYGVYRSRASRPLWLLAELDLPFEHVPVIQANRVAHPHGPEAPLNTASAAYLAVNPLGQIPCLEEEGLILTESLAITLHIARTQGGQLGPRSEPEDALMVSWSLFAATAVEPPALEIQLIQRSGGGTSPEGQAAIAIAAERLRRPLARLERHFAAEDYLVGGRFTVADLNLAETLRYGQAHPALLEPFPAVAAWLDRCQSRPAFRLMMERRAAEGHHHHHH”, the protein production result was “not failed”.

For the sequence “MSLKYLGVYVMEVQKNSSFKNKLQIGDTVLGANGHRFHSTEEMMTYLRKQKINSKVTISVLRGKEKLEHHHHHH”, the protein production entry is “failed”.

Turning to “MSLLESIAVVINLLGVWLTARRIRWCWPVGIVAVALYAWLFYQWKLYSDMLLQGVYVLTQLYGWWHWQPGTAADTRIRPLPMPSAERWLSLGIGAAFAATLGAYMHYRTDAVLPWLDAALASFSLVASVWAARKRIANWVLWIVLDCVYVGVFISKGLYPTAVLYAGFVALAVYGWHSWKTQQNQNLAVAR”, the protein production entry is given as “failed”.

As for “MSLMDYFAIHVVPKLYRGKGAFHPAETGKLTETVSCVREYDVNIFFIRKGNTLIAIDSGYKNHHALLPGCKKIEIDPKAVQALFLTHADPDHAGGLDIRCENCFINAEIYLGEIEENYLTNTIYRKKIGPFGLKNSVKIKDNYHLLKDGQSVSVGDLTIQPFLVPGHTLGHLMYLIDNELLFTGDSIALNQEGGWCFFDLFNYNSEMNIKSLKTLKEKLDLNRIKYVFTSHNGFTDKAKEAFAHVDVIPKWNEKGFIFDKTAPYDCFAD”, the protein production result was “failed”.

Take “MSLNARARALRHSRSGTIGLIVPDVNNAVFADMFSGVQMAASGHSTDVLLGQIDAPPRGTQQLSRLVSEGRVDGVLLQRREDFDDDMLAAVLEGVPAVTINSRVPGRVGSVILDDQKGGGIATEHLITLGHSRIAFISGTAIHDTAQRRKEGYLETLASAGLRSEAAWVVDAGWEADAGSAALNTLYRGANLGKPDGPTAVVVASVNAAVGALSTALRLGLRVPEDLSIVGINTTWVSDTVYPALTTVRLPLQRLGEVAADVLMEHLGGRALTDTVVTQPTPELLVRETTAPPTREGHHHHHH”: the protein production entry is listed as “not failed”.

On to “MSLNERILLVDDDYSLLNTLKRNLSFDFEVTTCESGPEALACIKKSDPFSVIMVDMRMPGMEGTEVIQKARLISPNSVYLMLTGNQDLTTAMEAVNEGQVFRFLNKPCQMSDIKAAINAGIKQYDLVTEGHHHHHH”, for which the protein production result is “not failed”.

For the sequence “MSLNETYMMITFQSGMDYWKRCLKGFEDAAQALNVTVEYRGAAQYDIQEQITVLEQAIAKNPAGIAISAIDPVELTDTINKAVDAGIPIVLFDSGAPDSHAHSFLGTNNYNAGMNAAYKMAELLDGEGEVAVITLPNQLNHQERTTGFKETLEAEFPAIEVIAVEDGRGDSLHSRRVAHQLLEDYPNLAGIFATEANGGVGVGDAVRLESRAGEIQIISFDTDKGTLDLVDEGIISATLAQGTWNMGYWSLTYLFHLHHGLTEPQILQTREEAPLPLYVDTGITIVTDENVDYYYADEGHHHHHH”, the protein production result was “not failed”.

Consider “MSLNGKTMFISGASRGIGLAIAKRAAQDGANIALIAKTAEPHPKLPGTVYTAAKELEEAGGQALPIVGDVRDPESVEAAVAKTVEQFGGIDICVNNASAINLGPITEVPMKRFDLMNGIQVRGTYAVSQACIPHLKGRENPHILTLSPPVLLGKEWLKPTAYMMAKFGMTLCALGIAEEMREAGIASNTLWPRTLVATAAVQNLLGGDEAMGRARKPEVYSDAAYVILNKPAREFTGNMLLCEDVLVESGVTDLSVYNCVPGSQLGVDFWVDGVNPPGYTGP”, for which the protein production result was “failed”.

As to “MSLNIEEWEEYRYVEAGIKESITLIEDPGLKKMVEHVCHSGGKRIRPIILLLVSEICSGSYSRSLNAALAVEMMHSASLIHDDLLDQGLVRRNLPSAPEKFGPSGALLCGDYLIAKSIAFISPYGEKVIQDFGKAGMDMAEGEVLDLKLEDESFGENDYFKCIYKKTASLFAISASIGAYTGGAEEELAERFSHFGNALGTAYQIVDDILEFLEVVEGKESKFTSETLPHIYMKSTSKEEALKKSIDCVKLHVAAAKETLETFRECPARDKLFQITDYITVDMLENLEGHHHHHH”, the protein production result is “not failed”.

Turning to “MSLNNQDISIGKLSRLKIWITDNHLSDDQWSNTKKFIIIKITTEDGIEGWGEAFSINFREKGIAIIIKELFREISNIPNLSIKSFYNKISLLSDGHRGLDFSSATSAIEIALWDISGKLKNLPLNSLLTKSPKPNVPIYATCWSDLKKDTNDYLRQIEKFYGKKYGGIKIYPMLDSLSISIQFVEKVREIVGDELPLMLDLAVPEDLDQTKSFLKEVSSFNPYWIEEPVDGENISLLTEIKNTFNMKVVTGEKQSGLVHFRELISRNAADIFNPDISGMGGLIDIIEISNEASNNGIFISPHCWNSMSVSASAMLHVCSSIPNSEKAEIFPDYINFSKKFCELPFDIIDNKAHINKSAGLGIVIHEDILSELSIYSLDEKSNDEGHHHHHH”, the protein production entry is “not failed”.

As to “MSLNRFTKTSQGRSWNTGNGSPDAICFAVDKPGIVVVGFAVYGGGGIHEYELEVLVDDSEHAGDSTHSHRWTSLELVKGTYTTDDSPSDIAEIRLDKVVPLKENVKYAVRLRNYGSRTANGDGGMTTVQCPDGVTFTFSTCSLSSNGTNQTRGQIPQILYYRSEEGHHHHHH”, the protein production entry is reported as “not failed”.

With “MSLPISLTDFFPIQGGMATRMVIEGANFGTDLSQIKVFFNQKEASILNVKNSIIYLLVPKLPGNDCIVTVKVGNQEARFTRNFQYIENYSVTTIAGQPGTNLFVEGTLAAAQFGPVQHLAIDDENNLFITERNGSDGKGTCSVLNEESGTVTFLFKASDNLNVPTVNAQTQNVYIPLDGGYTFYELNPVNQWIAKSRLVLHPSKEQQEAGMDDFEINWKHSLAFSRYDNMIYTRSYGGDLIKVDPETRVGQKIGNFFPNTDSFIVAHPTQPEILYIAYAAKHVIYTYNIETGEHKLFAGAFGQSGWNDGIATDAEFNSPRQMSLDMEGNIYIADSGNHCIRMIDKNGIVTTPIGQPGEAGYADGSPDMALLNDPRGVAVNSEGDVYIADLGNRCIRKLTLQLEHHHHHH”, the protein production entry is on record as “not failed”.

On to “MSLQLLIAQVLLLLLGSLGISAAAPDLIVKHGLRALLAVALTFAVARIRPRTLLKWGTNVWIVALVLLVLVLFIGQGSQDSPGVRRWLSIAGQEFQPSEFAKLALVLQLASFFSRRGVQNKLLSATGMIIATTALVIFEPDLGTSVLTFGLGIIVMYAAGVRLFNIGGLVLALGLFSLPFVNSYLESHPYILKRWTGHQVRDDGVVTGLDQIGMAHRDLNYGGWWGQGPDGPRWEYFAAHTDMVVAAVGFSSGLLGVLTLLFAYWLIVSTALQVAQLATRIRPMSAEIHGASILAIGCMFLVVGQAFVNLAVAAGLFPVTGVPLPLVSYGFSSMLTMSVALGIIHSAMREVRRQLPVEVKMDDFVGAAADD”, for which the protein production entry is given as “failed”.

“MSLRARIHSPEEHGSRGEDGHLVASYRAKLLEEIDLAEMSALATAERRARLERVLGHIISREGPVLSTVERSQLIRRVVDEALGLGILEPLLEDASITEIMVNGPDAIFVERAGRVEQLPLRFASHDQLMQTIERIVSTVNRRVDESNPMVDARLPSGERVNVIIPPLSLTGATLTIRRFPRSFTLQELIGLGSLDENMLYLLAGLVQARFNIIVSGATGTGKTTLLNALSGLIPESDRIITIEDSAELQLQQAHVIRLESRPPNVEGQGRITIRDLVRNSLRMRPDRIVVGEVRGGESLDMLQAMSTGHDGSLATVHANSAEDALMRLQTLASMSDVEIPFVALHDQINSSVDVLIQLTRFADGARRITEIALLASHGGEPYRLATVARFNARPMSADGRVVGAYEYHPLPHRTAERLYMAGQPIPQAFGVAHTPDQLTTREAR”: the protein production result is given as “failed”.

As to “MSLRGELRVGLEPGYLPFEMKDKKGNVIGFDVDLAREMAKAMGVKLKLVPTSWDGLIPGLVTEKFDIIISGMTISQERNLRVNFVEPYIVVGQSLLVKKGLEKGVKSYKDLDKPELTLVTKFGVSAEYAAKRLFKNAKLKTYDTEAEAVQEVLNGKADMFIFDLPFNVAFMAQKGQGYLVHLDTSLTYEPLGWAIKKGDPDFLNWLNHFLAQIKHDGSYDELYERWFVDTKWLEKIQEGHHHHHH”, the protein production entry is “not failed”.

Take “MSLRLADFGFTDGINEIIAITENEDGSWNAAPIGIIVEDSSSDTAKAKLYRNRTRANLERSGVLFANVTDDALVFAVSSFGNLNDDWYASPNPPIIKGAMAWCRFEAEMRSGVAHLKLTDGEIIEKRVRAINRGLSAVIEALVHATRYVAIKSDERRKELLERIHYYREIVQKCGSEREKRAFEIIMEKIGEGHHHHHH”: the protein production entry is reported as “not failed”.

With “MSLRVILFDLDGTLIDSAKDIALALEKTLKELGLEEYYPDNVTKYIGGGVRALLEKVLKDKFREEYVEVFRKHYLENPVVYTKPYPEIPYTLEALKSKGFKLAVVSNKLEELSKKILDILNLSGYFDLIVGGDTFGEKKPSPTPVLKTLEILGEEPEKALIVGDTDADIEAGKRAGTKTALALWGYVKLNSQIPDFTLSRPSDLVKLMDNHIVEFEGHHHHHH”, the protein production result was “not failed”.
